Experimental data published in the supplement of paper PMC5998384.

Columns and labels:
[1] = tested on: HeLa Kyoto; assay: solubility change mitosis vs G1/S (difference of NP-40 vs SDS log2 ratios) (log2 ratio difference); higher = more soluble in mitosis
[2] = tested on: HeLa Kyoto; assay: thermal stability score vs G1/S (z-score of summed log2 fold changes over temperatures); higher = more thermally stable than in G1/S
[3] = tested on: HeLa Kyoto; assay: solubility in G1/S (NP-40 vs SDS abundance) (log2 ratio); higher = more soluble; conditions: cell cycle stage: G1/S
[4] = tested on: HeLa Kyoto; assay: melting temperature (median over replicates), in situ; higher = more thermally stable; conditions: cell cycle stage: G1/S
[5] = cell cycle stage: early G1 (4.5 h after nocodazole release)
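For melting temperature (median over replicates), in situ in this document: HeLa Kyoto cells synchronized by double thymidine or nocodazole block, proteins quantified by TMT10plex mass spectrometry, three independent biological replicates.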
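For solubility change mitosis vs G1/S (difference of NP-40 vs SDS log2 ratios) in this document: synchronized HeLa Kyoto cells (double thymidine block for G1/S, nocodazole release for mitosis), protein amounts in NP-40 versus SDS lysates quantified by mass spectrometry, three biological replicates.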
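For solubility in G1/S (NP-40 vs SDS abundance) in this document: HeLa Kyoto cells arrested at G1/S by double thymidine block, proteins quantified by TMT10plex mass spectrometry in mild NP-40 versus SDS extracts, three biological replicates.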
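For thermal stability score vs G1/S (z-score of summed log2 fold changes over temperatures) in this document: synchronized HeLa Kyoto cells, proteins quantified by TMT10plex mass spectrometry, three biological replicates, mitosis taken 0.5 h after nocodazole release, G1/S directly after double thymidine block.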

Chain of NOS1AP (chain, as listed by the source): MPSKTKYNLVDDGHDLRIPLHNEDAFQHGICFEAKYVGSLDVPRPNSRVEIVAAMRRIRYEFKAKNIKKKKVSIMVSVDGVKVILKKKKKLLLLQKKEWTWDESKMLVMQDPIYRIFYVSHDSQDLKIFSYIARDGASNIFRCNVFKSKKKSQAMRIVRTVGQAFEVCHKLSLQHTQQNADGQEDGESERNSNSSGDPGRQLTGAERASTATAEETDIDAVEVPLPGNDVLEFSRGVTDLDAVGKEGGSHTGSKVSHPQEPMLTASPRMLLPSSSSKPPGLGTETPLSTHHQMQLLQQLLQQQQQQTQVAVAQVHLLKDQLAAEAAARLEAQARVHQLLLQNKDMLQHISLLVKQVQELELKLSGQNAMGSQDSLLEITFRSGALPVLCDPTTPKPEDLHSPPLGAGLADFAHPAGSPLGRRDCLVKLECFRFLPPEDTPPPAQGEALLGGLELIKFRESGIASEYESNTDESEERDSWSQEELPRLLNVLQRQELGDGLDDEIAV

Substance | solubility change mitosis (log2) [1] | thermal stability score [2, 5] | thermal stability score ([2]; cell cycle stage: mitosis) | solubility in G1/S (log2) [3] | melting temperature [4] [°C]
MKHINLSFAACGFLGIYHLGAASALCRHGKKLVKDVKAFAGASAGSLVASVLLTAPEKIEECNQFTYKFAEEIRRQSFGAVTPGYDFMARLRSGMESILPPSAHELAQNRLHVSITNAKTRENHLVSTFSSREDLIKVLLASSFVPIYAGLKLVEYKGQKWVDGGLTNALPILPVGRTVTISPFSGRLDISPQDKGQLDLYVNIAKQDIMLSLANLVRLNQALFPPSKRKMESLYQCGFDDTVKFLLKENWFE [PNPLA4] | -0.145 | 0.304 | 1.11 | 0.107 | –
MLRGPWRQLWLFFLLLLPGAPEPRGASRPWEGTDEPGSAWAWPGFQRLQEQLRAAGALSKRYWTLFSCQVWPDDCDEDEEAATGPLGWRLPLLGQRYLDLLTTWYCSFKDCCPRGDCRISNNFTGLEWDLNVRLHGQHLVQQLVLRTVRGYLETPQPEKALALSFHGWSGTGKNFVARMLVENLYRDGLMSDCVRMFIATFHFPHPKYVDLYKEQLMSQIRETQQLCHQTLFIFDEAEKLHPGLLEVLGPHLERRAPEGHRAESPWTIFLFLSNLRGDIINEVVLKLLKAGWSREEITMEHLEPHLQAEIVETIDNGFGHSRLVKENLIDYFIPFLPLEYRHVRLCARDAFLSQELLYKEETLDEIAQMMVYVPKEEQLFSSQGCKSISQRINYFLS [TOR3A] | -0.118 | 2.36 | 1.03 | 0.0484 | –
MGDKGTRVFKKASPNGKLTVYLGKRDFVDHIDLVDPVDGVVLVDPEYLKERRVYVTLTCAFRYGREDLDVLGLTFRKDLFVANVQSFPPAPEDKKPLTRLQERLIKKLGEHAYPFTFEIPPNLPCSVTLQPGPEDTGKACGVDYEVKAFCAENLEEKIHKRNSVRLVIRKVQYAPERPGPQPTAETTRQFLMSDKPLHLEASLDKEIYYHGEPISVNVHVTNNTNKTVKKIKISVRQYADICLFNTAQYKCPVAMEEADDTVAPSSTFCKVYTLTPFLANNREKRGLALDGKLKHEDTNLASSTLLREGANREILGIIVSYKVKVKLVVSRGGLLGDLASSDVAVELPFTLMHPKPKEEPPHREVPENETPVDTNLIELDTNDDDIVFEDFARQRLKGMKDDKEEEEDGTGSPQLNNR [ARRB1] | -0.0694 | -0.748 | -0.986 | 0.139 | –
ASPM | 0.177 | 0.917 | -0.0273 | -0.625 | –
MALFYVARYPGPDAAAAAGPEGAEAGAHGRARALLERLQSRARERQQQREPAQTEAAASTEPATRRRRRPRRRRRVNDAEPGSPEAPQGKRRKADGEDAGAESNEEAPGEPSAGSSEEAPGEPSAGSSEEAPGERSTSASAEAAPDGPALEEAAGPLVPGLVLGGFGKRKAPKVQPFLPRWLAEPNCVRRNVTEDLVPIEDIPDVHPDLQKQLRAHGISSYFPVQAAVIPALLESAACGFLVGRGGYRPSDLCVSAPTGSGKTLAFVIPVVQALLSRVVCHIRALVVLPTKELAQQVSKVFNIYTDATPLRVSLVTGQKSLAKEQESLVQKTADGYRCLADIVVATPGRLVDHIDQTPGFSLQQLRFLIIDEADRMIDSMHQSWLPRVVAAAFQSEDPADPCALLQRRQAQAVTAASTCCPQMPLQKLLFSATLTQNPEKLQQLGLHQPRLFSTGLAHRGLEDTDGDGDSGKYAFPVGLTHHYVPCSLSSKPLVVLHLVLEMGFSRVLCFTNSRENSHRLFLLVQAFGGVDVAEFSSRYGPGQRRMILKQFEQGKIQLLISTDATARGIDVQGVELVVNYDAPQYLRTYVHRVGRTARAGKTGQAFTLLLKVQERRFLRMLTEAGAPELQRHELSSKLLQPLVPRYEEALSQLEESVKEERKQRAA [DDX51] | 1.23 | -0.0942 | 1.3 | -1.48 | –
MVRGARQPQQPRSRLAPRLTGTVEKPPRKRRSRTEFALKEIMSSGGAEDDIPQGERKTVTDFCYLLDKSKQLFNGLRDLPQYGQKQWQSYFGRTFDVYTKLWKFQQQHRQVLDNRYGLKRWQIGEIASKIGQLYYHYYLRTSETSYLNEAFSFYSAIRQRSYYSQVNKEDRPELVVKKLRYYARFIVVCLLLNKMDVVKDLVKELSDEIEDYTHRFNTEDQVEWNLVLQEVAAFIEADPVMVLNDDNTIVITSNRLAETGAPLLEQGMIVGQLSLADALIIGNCNNQVKFSELTVDMFRMLQALEREPMNLASQMNKPGMQESADKPTRRENPHKYLLYKPTFSQLYTFLAASFKELPANSVLLIYLSATGVFPTGRSDSEGPYDFGGVLTNSNRDIINGDAIHKRNQSHKEMHCLHPGDLYPFTRKPLFIIVDSSNSVAYKNFTNLFGQPLVCLLSPTAYPKALQDQSQRGSLFTLFLNNPLMAFLFVSGLSSMRRGLWEKCQEYLRKINRDIAQLLTHSRSIDQAFLQFFGDEFLRLLLTRFIFCSATMRMHKIFRETRNYPESYPQLPRDETVENPHLQKHILELASILDVRNVFFENTIDDY [SCAI] | -0.117 | 0.148 | -0.274 | -0.309 | –
MSGDTCLCPASGAKPKLSGFKGGGLGNKYVQLNVGGSLYYTTVRALTRHDTMLKAMFSGRMEVLTDKEGWILIDRCGKHFGTILNYLRDDTITLPQNRQEIKELMAEAKYYLIQGLVNMCQSALQDKKDSYQPVCNIPIITSLKEEERLIESSTKPVVKLLYNRSNNKYSYTSNSDDHLLKNIELFDKLSLRFNGRVLFIKDVIGDEICCWSFYGQGRKLAEVCCTSIVYATEKKQTKVEFPEARIYEETLNVLLYETPRVPDNSLLEATSRSRSQASPSEDEETFELRDRVRRIHVKRYSTYDDRQLGHQSTHRD [TNFAIP1] | 0.627 | 1.18e-17 | -0.17 | -1.22 | –
MKCEHCTRKECSKKTKTDDQENVSADAPSPAQENGEKGEFHKLADAKIFLSDCLACDSCMTAEEGVQLSQQNAKDFFRVLNLNKKCDTSKHKVLVVSVCPQSLPYFAAKFNLSVTDASRRLCGFLKSLGVHYVFDTTIAADFSILESQKEFVRRYRQHSEEERTLPMLTSACPGWVRYAERVLGRPITAHLCTAKSPQQVMGSLVKDYFARQQNLSPEKIFHVIVAPCYDKKLEALQESLPPALHGSRGADCVLTSGEIAQIMEQGDLSVRDAAVDTLFGDLKEDKVTRHDGASSDGHLAHIFRHAAKELFNEDVEEVTYRALRNKDFQEVTLEKNGEVVLRFAAAYGFRNIQNMILKLKKGKFPFHFVEVLACAGGCLNGRGQAQTPDGHADKALLRQMEGIYADIPVRRPESSAHVQELYQEWLEGINSPKAREVLHTTYQSQERGTHSLDIKW [NARF] | -0.273 | -0.279 | -0.0946 | 0.474 | –
NOS1AP | -0.0377 | 0.688 | 0.322 | -0.0474 | –
MARACLQAVKYLMFAFNLLFWLGGCGVLGVGIWLAATQGSFATLSSSFPSLSAANLLIITGAFVMAIGFVGCLGAIKENKCLLLTFFLLLLLVFLLEATIAILFFAYTDKIDRYAQQDLKKGLHLYGTQGNVGLTNAWSIIQTDFRCCGVSNYTDWFEVYNATRVPDSCCLEFSESCGLHAPGTWWKAPCYETVKVWLQENLLAVGIFGLCTALVQILGLTFAMTMYCQVVKADTYCA [TSPAN4] | 0.125 | -5.28e-17 | 1.16e-18 | -0.165 | –
MELRARGWWLLCAAAALVACARGDPASKSRSCGEVRQIYGAKGFSLSDVPQAEISGEHLRICPQGYTCCTSEMEENLANRSHAELETALRDSSRVLQAMLATQLRSFDDHFQHLLNDSERTLQATFPGAFGELYTQNARAFRDLYSELRLYYRGANLHLEETLAEFWARLLERLFKQLHPQLLLPDDYLDCLGKQAEALRPFGEAPRELRLRATRAFVAARSFVQGLGVASDVVRKVAQVPLGPECSRAVMKLVYCAHCLGVPGARPCPDYCRNVLKGCLANQADLDAEWRNLLDSMVLITDKFWGTSGVESVIGSVHTWLAEAINALQDNRDTLTAKVIQGCGNPKVNPQGPGPEEKRRRGKLAPRERPPSGTLEKLVSEAKAQLRDVQDFWISLPGTLCSEKMALSTASDDRCWNGMARGRYLPEVMGDGLANQINNPEVEVDITKPDMTIRQQIMQLKIMTNRLRSAYNGNDVDFQDASDDGSGSGSGDGCLDDLCSRKVSRKSSSSRTPLTHALPGLSEQEGQKTSAASCPQPPTFLLPLLLFLALTVARPRWR [GPC1] | -0.378 | 1.52 | 3.51 | -0.193 | –
MGAVLGVFSLASWVPCLCSGASCLLCSCCPNSKNSTVTRLIYAFILLLSTVVSYIMQRKEMETYLKKIPGFCEGGFKIHEADINADKDCDVLVGYKAVYRISFAMAIFFFVFSLLMFKVKTSKDLRAAVHNGFWFFKIAALIGIMVGSFYIPGGYFSSVWFVVGMIGAALFILIQLVLLVDFAHSWNESWVNRMEEGNPRLWYAALLSFTSAFYILSIICVGLLYTYYTKPDGCTENKFFISINLILCVVASIISIHPKIQEHQPRSGLLQSSLITLYTMYLTWSAMSNEPDRSCNPNLMSFITRITAPTLAPGNSTAVVPTPTPPSKSGSLLDSDNFIGLFVFVLCLLYSSIRTSTNSQVDKLTLSGSDSVILGDTTTSGASDEEDGQPRRAVDNEKEGVQYSYSLFHLMLCLASLYIMMTLTSWYSPDAKFQSMTSKWPAVWVKISSSWVCLLLYVWTLVAPLVLTSRDFS [SERINC3] | 0.0994 | -2.7 | -4.19 | -0.0916 | –
MGSENSALKSYTLREPPFTLPSGLAVYPAVLQDGKFASVFVYKRENEDKVNKAAKHLKTLRHPCLLRFLSCTVEADGIHLVTERVQPLEVALETLSSAEVCAGIYDILLALIFLHDRGHLTHNNVCLSSVFVSEDGHWKLGGMETVCKVSQATPEFLRSIQSIRDPASIPPEEMSPEFTTLPECHGHARDAFSFGTLVESLLTILNEQVSADVLSSFQQTLHSTLLNPIPKCRPALCTLLSHDFFRNDFLEVVNFLKSLTLKSEEEKTEFFKFLLDRVSCLSEELIASRLVPLLLNQLVFAEPVAVKSFLPYLLGPKKDHAQGETPCLLSPALFQSRVIPVLLQLFEVHEEHVRMVLLSHIEAYVEHFTQEQLKKVILPQVLLGLRDTSDSIVAITLHSLAVLVSLLGPEVVVGGERTKIFKRTAPSFTKNTDLSLEDSPMCVVCSHHSQISPILENPFSSIFPKCFFSGSTPINSKKHIQRDYYNTLLQTGDPFSQPIKFPINGLSDVKNTSEDSENFPSSSKKSEEWPDWSEPEEPENQTVNIQIWPREPCDDVKSQCTTLDVEESSWDDCEPSSLDTKVNPGGGITATKPVTSGEQKPIPALLSLTEESMPWKSSLPQKISLVQRGDDADQIEPPKVSSQERPLKVPSELGLGEEFTIQVKKKPVKDPEMDWFADMIPEIKPSAAFLILPELRTEMVPKKDDVSPVMQFSSKFAAAEITEGEAEGWEEEGELNWEDNNW [SCYL3] | -0.0596 | 0.969 | 0.364 | -0.0689 | –
MEAEETMECLQEFPEHHKMILDRLNEQREQDRFTDITLIVDGHHFKAHKAVLAACSKFFYKFFQEFTQEPLVEIEGVSKMAFRHLIEFTYTAKLMIQGEEEANDVWKAAEFLQMLEAIKALEVRNKENSAPLEENTTGKNEAKKRKIAETSNVITESLPSAESEPVEIEVEIAEGTIEVEDEGIETLEEVASAKQSVKYIQSTGSSDDSALALLADITSKYRQGDRKGQIKEDGCPSDPTSKQVEGIEIVELQLSHVKDLFHCEKCNRSFKLFYHFKEHMKSHSTESFKCEICNKRYLRESAWKQHLNCYHLEEGGVSKKQRTGKKIHVCQYCEKQFDHFGHFKEHLRKHTGEKPFECPNCHERFARNSTLKCHLTACQTGVGAKKGRKKLYECQVCNSVFNSWDQFKDHLVIHTGDKPNHCTLCDLWFMQGNELRRHLSDAHNISERLVTEEVLSVETRVQTEPVTSMTIIEQVGKVHVLPLLQVQVDSAQVTVEQVHPDLLQDSQVHDSHMSELPEQVQVSYLEVGRIQTEEGTEVHVEELHVERVNQMPVEVQTELLEADLDHVTPEIMNQEERESSQADAAEAAREDHEDAEDLETKPTVDSEAEKAENEDRTALPVLE [ZNF131] | -0.0242 | – | – | -0.231 | 46.6
